Results reported in the DeepSol protein solubility set.

Experiment: soluble on expression in E. coli; label from the status in PepcDB or PDB records

Sequence | soluble on expression in E. coli
MSLTTDTTSQTVLRSRKDVPSSDCWDTKSLYASREAWKKDLENLCGKEAPFWPHLNEKQFHIEQPSSLYKLLTEVFSIERTLEKLYVYAHLTHDEDISNQEATADLKSITYLLTSFSEEISWIQPALIALPQKISEELLTSPELQTYHFYLKKIFRLAPHTGTSREEKILASSSPALEVAYKTFSSLTDSEIPFGEAVDSEGKSHPLSHALSSLYMQSPDRELRKSAYQKQCQRYHGYRLSLANLLNGKIQAHLFNAKAHNYKSCLEAALFQNNISTSVVTTLIETVKQHTHLMTKYFQLKQKALGLPDFHFYDVYAPIAASEFARHYSYEEAVSLICDSLTPLGDNYVEALRKGLTSEGWVDKYENQNKRSGAYSSGCYDSKPYILMNYTGTLYDVSVVAHEGGHSMHSFLSHKHQQYHEAQYPIFLAEIASTLNETLLMEFLLKNAPSKEEKIAILSRSLDTIFATLFRQTLFADFELEAHSAAEQGIPLTEEFFSQSYKKLQHIFYGDCVTFDELSSIEWARIPHFYYNFYVYQYATGIIASLCFSEKILSKEAGAQEAYLTFLQSGGSDFPIEILKKSGLDMTSSAPMLKAFSYIERKLDELTNLLEGHHHHHH | soluble
MSLTTQLGLPDDIQACLFDLDGVVTRTAVVHAAAWKATFDTFLRERDGADFRPFTDSDYDQYVDGRPRADGVRSFLASRGVELPEGTPDDPPDARTVNGVGNRKNELLLEKIRTDGVEPYEGTLRYIDAVRAAGLATAIVSSSANTRDVLRSIDAERLFDVRIDGVVARERKLPGKPHPDTFLAAARDLGVEASRAAVFEDALAGMDAGRSGHFGYVVGVDRVGQTDALYAHGADRVVKDLAELGDHAEGHHHHHH | soluble
MSLTVFKSPITGRTYHLVFNDEFDDGVIDTLKWDTRSRRSPFTRRGMYQEKPYYVLCHEDWTKELHGELRLEVSKYPTQNNVVMTGGILSLGRFMARYGYYETKASFRDCIGEGYWPAFWIHFDEADKYGKGTEIDVFEYIPKDKQIFQTLHWYKKQAMEEQQSEVQHAALDYDKSGQFKEHRSSTKYFVLDEAQSKEHTFAVEWTPEELIFYTDGKVTRRVNRKDDPKQVPSAYQMVYFSCSAGEWGGNVMENQVPAYVYFDYCRCYQESDQDAIYTVKGNGMKVPASRRVGKEGHHHHHH | not soluble
MSLTVVQLTDIHFQWPYPYVTKKKLASIVEKVNEINPDFIFLTGDFISRYRTYNISKYNTETIAFYLGQLRAKRGIYAIQGNNDRCAGDMLLKAFKENGVRMLMNEGIIDDDISITGILSSKNIDICNTWLNQTKIPDAPLKILLSHQPDTALVTYPFFDLQFSGHTHGGQCIAPFGIGPILHPKMGHKFIVGVYKIGNMILHVSTGIGISPLPKPLVRFNNIAEVSVIRVVPEEGHHHHHH | not soluble
MSLTYDLIITDSHVMTPNGMVEKNIVIDSGKIKLITNDTPTCDKKIKGSGLVSIPGVIDPHVHYGVYSPIDQAAKTESHAAAIGGVTTMIRMFRLEGSYKDSLQKHLLASQNSHYIDYTIHASIFDTSQIDEMKYCTENQILSFKIYMNLGGDVGHVYMEMNPGEEKLISSHVNVTNELVEKIVKRAGELKCPVLVHAEDYQECACAMKTEQEKKHDGLNSWSESRSPDFEAKSIKTICEYGRKYDCVIYFVHIGSKLALEQIQIEKNNGTKIFVETCPHYLTLSHETQDGYLAKVMPPIRTKNDVEYVWESLQKNHINTIGTDHVANQLKLKLGGDDVWGALAGFPGIGTSLPILLSEGINKNRITLDQLVNLTSANTSKIFGLSDKGNISTGYEGHHHHHH | soluble
MSLTYILRRSQLLLIVSSYQLVHYLCSQLSSLKDASCMCAYILTTLYKDIDMELAEKDKGRDFTLRNARMDDIDQIIKINRLTLPENYPYYFFVEHLKEYGLAFFVAIVDNSVVGYIMPRIEWGFSNIKQLPSLVRKGHVVSIAVLEEYRRKGIATTLLEASMKSMKNDYNAEEIYLEVRVSNYPAIALYEKLNFKKVKVLKGYYADGEDAYLMARPLEGHHHHHH | not soluble
MSLVACECLPSPGLEPEPCSRARSQAHVYLEQIRNRVALGVPDMTKRDYLVDAATQIRLALERDVSEDYEAAFNHYQNGVDVLLRGIHVDPNKERREAVKLKITKYLRRAEEIFNCHLQRPLSSGASPSAVQLVQDPATGGTFVVKSLPRCHMVSRERLTIIPHGVPYMTKLLRYFVSEDSIFLHLEHVQGGTLWSHLLSQAHSRHSGLSSGSTQERMKAQLNPHLNLLTPARLPSGHAPGQDRIALEPPRTSPNLLLAGEAPSTRPQREAEGEPTARTSTSGSSDLPKAPGGHLHLQARRAGQNSDAGPPRGLTWVPEGAGPVLGGCGRGMDQSCLSADGAGRGCGRATWSVREEQVKQWAAEMLVALEALHEQGVLCRDLHPGNLLLDQAGHIRLTYFGQWSEVEPQCCGEAVDNLYSAPEVGGISELTEACDWWSFGSLLYELLTGMALSQSHPSGIQAHTQLQLPEWLSRPAASLLTELLQFEPTRRLGMGEGGVSKLKSHPFFSTIQWSKLVGTSLETHLRTLIHWLSGPKPDCPG | soluble
MSLVINAPFKVIASKVTAEVLKSVNSKLGSYSTNYATSSEARATNVAVATRSIDGKVVMPGETFSFNEVVGERTRARGYKEAGVIVNQKLESGFGGGVCQVSSTLYNALLRSNIKMTERVHHTFPSSYVPTGLDATVDWGNIDLKFKNTFKYPIYIQGYTGGREVGFNIYSNSELARTRCEITSEVYKKIEPRTEYINDSNLPAGAMEVVKSGHTGYRVKSYRSIYKDGKFVAKELIANDYYVPVNGVVKRGTREGHHHHHH | soluble
MSLVKIKEVAMNIKINEIKMTPPTAFTPGQVIEEQEVISPSMLALQELQETTGAALYETMEEIGMALSGKLRENYKFTDAEKLERRQQALLRLIKQIQEDNGATLRPLTEENSDPDLQNAYQIIALAMALTAGGLSKKKKRDLQSQLDTLTAEEGWELAVFSLLELGEVDTATLSSLKRFMQQAIDNDEMPLSQWFRRVADWPDRCERVRILLRAVAFELSICIEPSEQSRLAAALVRLRRLLLFLGLEKECQREEWICQLPPNTLLPLLLDIICERWLFSDWLLDRLTAIVSSSKMFNRLLQQLDAQFMLIPDNCFNDEDQREQILETLREVKINQVLFEGHHHHHH | soluble
MSLVKNEEKLLEVINKYELNSIFSQEIMPFLELHMFKKNEHICFMNEELNYLYFFVHGKAKVYKTLPNGKSLLLEFYEPVQLIGDLELISKIKANCNVKALKSSLCIAIPIQAVNSIALKDLNFLMYITKNLSNKLAKCSVTSSITITYPLETKLASYLLAMNSNNIIMIDNYSNLADLLGTSYRHLNRVLNKLVEKGIILKDKNEIKILNKEELENICVDLNEGHHHHHH | soluble
MSLVLDKLLYTGYNRLIDLGWRRSGHYLYKPNGKTSCCSLYTIRLDSYNFKIAKEQKKAIKKWVKYVNGKPLKPMKSEISTDYLNNAFQTIESLGAEKYSVTMEPCTYTDEKFEVFKKYQMQVHLEKEEEITKKGFSRFLCNSPLFNEDKGIKYGSYHQMYRFQGRLVAVGVLDLLPHGVSSVYLFYDPDMSKFSLGRISACREIWLALECGYRYYYMGYYIHTCPKMKYKATYSPSYLLNPGTNKWIPIENFTSLWNTGAPKYISFGDENNSDIQTAVDYDSSEDSSQNEDDYTLFNRQLPGILSVNVAESLVSENFANIGNSTFPTRHVLSYFPQVKHWFVEINAAVGEEVAKSYTLVLSSEGHHHHHH | not soluble
MSLVLMIVSGRSGSGKSVALRALEDMGFYCVDNLPVVLLPDLARSLADRNISAAVSIDVRNMPESPEIFEQAMQNLPECFSPQLLFLDADRNTLIRRYSDTRRLHPLSSKNLSLESAIDEESDLLEPLRSRADLIVDTSEMSVHELAEMLRTRLLGKRERELTMVFESFGFKHGIPIDADYVFDVRFLPNPHWDPKLRPMTGLDKPVAAFLDRHTEVHNFIYQTRSYLELWLPMLETNNRSYLTVAIGCTGGKHRSVYIAEQLADYFRSRGKNVQSRHRTLEKRKSEGGSHHHHHH | soluble
MSLVRDIKTFKFFEVLLIYEMLEVLKALAMMNATRKVVKISSKELAEHIGQSLQTAARKLKELEDEGLIDRTLTKDGQFVVITEKGKQLLYKEYMDYKKIFDDEGTIKIKGEVFSGVGEGRYYVSLEGYRKQFREKLGFDPYPGTLNLRIPKEEMYFRRRLDEERGILIEGFSTEDRTFGEVKAFKCRINGIEGAIVIPKRTHYPAEILEVISPVKLRDKLGLKDGDFVEVEVILEGHHHHHH | soluble
